Target: the molecule itself
Assay: SDS-PAGE and Western blot of cell lysate without cross-linker

B1: human apical sodium-dependent bile acid transporter, wild type (wt-hASBT) (natural protein, UniProt Q12908 1-348, looked up)
chain: MNDPNSCVDNATVCSGASCVVPESNFNNILSVVLSTVLTILLALVMFSMGCNVEIKKFLGHIKRPWGICVGFLCQFGIMPLTGFILSVAFDILPLQAVVVLIIGCCPGGTASNILAYWVDGDMDLSVSMTTCSTLLALGMMPLCLLIYTKMWVDSGSIVIPYDNIGTSLVSLVVPVSIGMFVNHKWPQKAKIILKIGSIAGAILIVLIAVVGGILYQSAWIIAPKLWIIGTIFPVAGYSLGFLLARIAGLPWYRCRTVAFETGMQNTQLCSTIVQLSFTPEELNVVFTFPLIYSIFQLAFAAIFLGFYVAYKKCHGKNKAEIPESKENGTEPESSFYKANGGFQPDEK
modifications: N-glycosylated at Asn10 (glycosylated ~41 kDa and non-glycosylated ~37 kDa forms both seen)
stoichiometry N: 2
